Literature values, collected in article PMC3616122.

Molecular target: Cul3 NTD (Homo sapiens) (UniProt Q13618)
Test: ITC

Sequence of Cul3 NTD (Homo sapiens) (Q13618 20-381): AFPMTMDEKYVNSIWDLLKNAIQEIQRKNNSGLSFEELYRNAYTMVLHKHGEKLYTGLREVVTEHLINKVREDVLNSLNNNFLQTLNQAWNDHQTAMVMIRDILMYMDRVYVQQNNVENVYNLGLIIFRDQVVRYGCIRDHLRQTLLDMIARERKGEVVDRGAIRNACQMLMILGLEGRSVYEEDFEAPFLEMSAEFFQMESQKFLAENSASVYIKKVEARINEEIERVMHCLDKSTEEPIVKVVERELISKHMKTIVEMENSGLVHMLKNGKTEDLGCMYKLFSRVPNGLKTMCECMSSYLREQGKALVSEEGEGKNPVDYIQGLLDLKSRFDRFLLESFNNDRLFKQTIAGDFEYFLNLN
Sequence of SPOP BTB (O43791 170-300): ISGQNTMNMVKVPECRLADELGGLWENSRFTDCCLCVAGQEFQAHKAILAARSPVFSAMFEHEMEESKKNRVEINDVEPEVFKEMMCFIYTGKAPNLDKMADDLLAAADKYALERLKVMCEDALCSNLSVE
Sequence of SPOP BTB-BACK (O43791 177-359): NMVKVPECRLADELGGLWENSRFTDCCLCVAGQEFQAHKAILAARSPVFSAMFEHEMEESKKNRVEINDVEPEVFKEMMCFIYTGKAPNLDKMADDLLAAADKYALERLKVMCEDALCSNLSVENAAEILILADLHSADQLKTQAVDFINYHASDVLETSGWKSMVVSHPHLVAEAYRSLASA

| Kd [µM] | Substance |
| --- | --- |
| 1000 | SPOP BTB (from UniProt O43791) |
| 0.013 | SPOP BTB-BACK (from UniProt O43791) |
